Assay results taken from paper PMC8750214.

Assays:
[1] = immunoblot of total 4-1BB, Jurkat; conditions: glycan lost; control: wild type
[2] = flow cytometry of surface 4-1BB, Jurkat; conditions: glycan lost; control: wild type

Row | Substance | expression_or_secretion [1] | localisation_or_trafficking [2]
1 | 4-1BB (CD137/TNFRSF9): N138Q | no change | decreases
2 | 4-1BB (CD137/TNFRSF9): N149Q |  | no change
